B1: RAB11A (parent)
chain: AVPTDEARAFAEKNGLSFIETSAL
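Note: lentivirally expressed fusions sorted by FACS into six bins by GFP to DsRed ratio, PSI derived from sequencing read proportions per bin multiplied by bin number.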

Variants of: B1
Assay: protein stability index of a GFP-peptide fusion (GPS, HEK-293T) (PSI 1-6); higher = more stable
Conditions: c terminus: a fixed tail appended
AVPTDEARAFNEKNGLSFIETSAL showed a protein stability index of 2.5.
Work on AVPTDEARAFPEKNGLSFIETSAL yielded a protein stability index of 2.33.
For AVPTDEARAFQEKNGLSFIETSAL, the protein stability index was 2.21.
For AVPTDEARAFREKNGLSFIETSAL, the protein stability index was 2.12.
With AVPTDEARAFSEKNGLSFIETSAL the protein stability index was 2.63.
With AVPTDEARAFTEKNGLSFIETSAL the protein stability index was 2.31.
AVPTDEARAFVEKNGLSFIETSAL gave a protein stability index of 2.65.
For AVPTDEARAFWEKNGLSFIETSAL, the protein stability index was 1.9.
For AVPTDEARAFYEKNGLSFIETSAL, the protein stability index was 2.2.
For AVPTDEARAFAAKNGLSFIETSAL, the protein stability index was 2.07.
For AVPTDEARAFACKNGLSFIETSAL, the protein stability index was 2.85.
AVPTDEARAFADKNGLSFIETSAL gave a protein stability index of 2.54.
Work on AVPTDEARAFAFKNGLSFIETSAL yielded a protein stability index of 1.69.
For AVPTDEARAFAGKNGLSFIETSAL, the protein stability index was 1.9.
Work on AVPTDEARAFAHKNGLSFIETSAL yielded a protein stability index of 1.96.
In the case of AVPTDEARAFAIKNGLSFIETSAL, the protein stability index is reported as 1.39.
Variant AVPTDEARAFAKKNGLSFIETSAL has a protein stability index of 1.81.
Work on AVPTDEARAFALKNGLSFIETSAL yielded a protein stability index of 1.75.
AVPTDEARAFAMKNGLSFIETSAL showed a protein stability index of 1.54.
AVPTDEARAFANKNGLSFIETSAL gave a protein stability index of 2.41.
AVPTDEARAFAPKNGLSFIETSAL showed a protein stability index of 1.88.
For AVPTDEARAFAQKNGLSFIETSAL, the protein stability index was 1.77.
For AVPTDEARAFARKNGLSFIETSAL, the protein stability index was 2.55.
AVPTDEARAFASKNGLSFIETSAL showed a protein stability index of 2.01.
For AVPTDEARAFATKNGLSFIETSAL, the protein stability index was 1.46.
Work on AVPTDEARAFAVKNGLSFIETSAL yielded a protein stability index of 2.3.
For AVPTDEARAFAWKNGLSFIETSAL, the protein stability index was 2.08.
In the case of AVPTDEARAFAYKNGLSFIETSAL, the protein stability index is reported as 1.74.
AVPTDEARAFAEANGLSFIETSAL showed a protein stability index of 2.57.
AVPTDEARAFAECNGLSFIETSAL showed a protein stability index of 2.38.
For AVPTDEARAFAEDNGLSFIETSAL, the protein stability index was 3.88.
For AVPTDEARAFAEENGLSFIETSAL, the protein stability index was 2.81.
Work on AVPTDEARAFAEFNGLSFIETSAL yielded a protein stability index of 2.24.
For AVPTDEARAFAEGNGLSFIETSAL, the protein stability index was 3.15.
For AVPTDEARAFAEHNGLSFIETSAL, the protein stability index was 1.77.
AVPTDEARAFAEINGLSFIETSAL showed a protein stability index of 2.09.
Work on AVPTDEARAFAELNGLSFIETSAL yielded a protein stability index of 2.17.
For AVPTDEARAFAEMNGLSFIETSAL, the protein stability index was 2.12.
For AVPTDEARAFAENNGLSFIETSAL, the protein stability index was 2.43.
Work on AVPTDEARAFAEPNGLSFIETSAL yielded a protein stability index of 2.28.
Work on AVPTDEARAFAEQNGLSFIETSAL yielded a protein stability index of 2.67.
In the case of AVPTDEARAFAERNGLSFIETSAL, the protein stability index is reported as 2.52.
AVPTDEARAFAESNGLSFIETSAL showed a protein stability index of 2.9.
In the case of AVPTDEARAFAETNGLSFIETSAL, the protein stability index is reported as 2.18.
For AVPTDEARAFAEVNGLSFIETSAL, the protein stability index was 2.23.
For AVPTDEARAFAEWNGLSFIETSAL, the protein stability index was 4.07.
In the case of AVPTDEARAFAEYNGLSFIETSAL, the protein stability index is reported as 2.49.
Work on AVPTDEARAFAEKAGLSFIETSAL yielded a protein stability index of 1.96.
AVPTDEARAFAEKCGLSFIETSAL gave a protein stability index of 1.71.
AVPTDEARAFAEKDGLSFIETSAL showed a protein stability index of 3.62.
Variant AVPTDEARAFAEKEGLSFIETSAL has a protein stability index of 3.54.
AVPTDEARAFAEKFGLSFIETSAL gave a protein stability index of 2.25.
In the case of AVPTDEARAFAEKGGLSFIETSAL, the protein stability index is reported as 2.15.
AVPTDEARAFAEKHGLSFIETSAL gave a protein stability index of 2.36.
In the case of AVPTDEARAFAEKIGLSFIETSAL, the protein stability index is reported as 2.13.
For AVPTDEARAFAEKKGLSFIETSAL, the protein stability index was 2.46.
Variant AVPTDEARAFAEKLGLSFIETSAL has a protein stability index of 2.03.
Variant AVPTDEARAFAEKMGLSFIETSAL has a protein stability index of 1.92.
AVPTDEARAFAEKPGLSFIETSAL gave a protein stability index of 2.44.
Variant AVPTDEARAFAEKQGLSFIETSAL has a protein stability index of 2.85.
Variant AVPTDEARAFAEKRGLSFIETSAL has a protein stability index of 2.52.
For AVPTDEARAFAEKSGLSFIETSAL, the protein stability index was 2.95.
Variant AVPTDEARAFAEKTGLSFIETSAL has a protein stability index of 2.39.
With AVPTDEARAFAEKVGLSFIETSAL the protein stability index was 1.85.
AVPTDEARAFAEKWGLSFIETSAL showed a protein stability index of 1.74.
Work on AVPTDEARAFAEKYGLSFIETSAL yielded a protein stability index of 2.17.
AVPTDEARAFAEKNALSFIETSAL gave a protein stability index of 2.08.
Work on AVPTDEARAFAEKNCLSFIETSAL yielded a protein stability index of 2.59.
For AVPTDEARAFAEKNDLSFIETSAL, the protein stability index was 3.87.
In the case of AVPTDEARAFAEKNELSFIETSAL, the protein stability index is reported as 3.33.
Variant AVPTDEARAFAEKNFLSFIETSAL has a protein stability index of 1.82.
In the case of AVPTDEARAFAEKNHLSFIETSAL, the protein stability index is reported as 2.15.
In the case of AVPTDEARAFAEKNILSFIETSAL, the protein stability index is reported as 2.8.
AVPTDEARAFAEKNKLSFIETSAL gave a protein stability index of 2.92.
AVPTDEARAFAEKNLLSFIETSAL showed a protein stability index of 1.67.
AVPTDEARAFAEKNMLSFIETSAL showed a protein stability index of 2.02.
AVPTDEARAFAEKNPLSFIETSAL gave a protein stability index of 2.2.
In the case of AVPTDEARAFAEKNQLSFIETSAL, the protein stability index is reported as 2.58.
AVPTDEARAFAEKNRLSFIETSAL showed a protein stability index of 2.52.
AVPTDEARAFAEKNSLSFIETSAL showed a protein stability index of 2.06.
AVPTDEARAFAEKNTLSFIETSAL showed a protein stability index of 1.7.
AVPTDEARAFAEKNVLSFIETSAL gave a protein stability index of 2.64.
For AVPTDEARAFAEKNWLSFIETSAL, the protein stability index was 2.3.
AVPTDEARAFAEKNYLSFIETSAL gave a protein stability index of 1.74.
In the case of AVPTDEARAFAEKNGASFIETSAL, the protein stability index is reported as 4.51.
AVPTDEARAFAEKNGCSFIETSAL showed a protein stability index of 3.66.
For AVPTDEARAFAEKNGDSFIETSAL, the protein stability index was 4.87.
In the case of AVPTDEARAFAEKNGESFIETSAL, the protein stability index is reported as 4.73.
For AVPTDEARAFAEKNGFSFIETSAL, the protein stability index was 1.91.
With AVPTDEARAFAEKNGGSFIETSAL the protein stability index was 4.35.
With AVPTDEARAFAEKNGHSFIETSAL the protein stability index was 4.3.
In the case of AVPTDEARAFAEKNGISFIETSAL, the protein stability index is reported as 3.85.
In the case of AVPTDEARAFAEKNGKSFIETSAL, the protein stability index is reported as 4.27.
In the case of AVPTDEARAFAEKNGMSFIETSAL, the protein stability index is reported as 3.73.
